Data as given in patent publication US20120082682A1 (GlaxoSmithKline, published 2012).
Positions count from the first letter of the chain named.

T1: human IL-4 (recombinant E. coli-expressed) (human, UniProt P05112 25-153)
T1 sequence (looked up): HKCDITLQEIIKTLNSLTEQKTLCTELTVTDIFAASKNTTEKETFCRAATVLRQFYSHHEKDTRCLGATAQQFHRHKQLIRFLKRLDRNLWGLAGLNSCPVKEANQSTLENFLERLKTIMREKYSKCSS

B1: A1L1 (antibody, human IgG1, kappa, V domains shown)
VH: QVQLVQSGAEVKKPGSSVKVSCKASGFYIKDTYMHWVRQAPGQGLEWMGTIDPANGNTKYVPKFQGRVTITADESTSTAYMELSSLRSEDTAVYYCARSIYDDYHYDDYYAMDYWGQGTLVTVSS
VL: DIVMTQSPLSLPVTPGEPASISCRSSQNIVHINGNTYLEWYLQKPGQSPRLLIYKISDRFSGVPDRFSGSGSGTDFTLKISRVEADDVGIYYCFQGSHVPWTFGQGTKLEIKR
notes: Humanised version of murine 6A1, human IgG1 kappa; also called parental; 586 (mAb)
B2: A1Y100B ValL1 (antibody, human IgG1, kappa, V domains shown)
VH: B1 VH with Y106V
VL: B1 VL
notes: CDRH3 variant of A1L1; also called A1Y100BVAL1; 829 (mAb)
B3: BPC2223 (bispecific antibody, human IgG1, kappa)
heavy: not shown
light: DIVMTQSPLSLPVTPGEPASISCRSSQNIVHINGNTYLEWYLQKPGQSPRLLIYKISDRFSGVPDRFSGSGSGTDFTLKISRVEADDVGIYYCFQGSHVPWTFGQGTKLEIKRTVAAPSVFIFPPSDEQLKSGTASVVCLLNNFYPREAKVQWKVDNALQSGNSQESVTEQDSKDSTYSLSSTLTLSKADYEKHKVYACEVTHQGLSSPVTKSFNRGEC
notes: mAbdAb with the original CDRH3 and the unmutated DOM9-155-154 dAb

Tests used:
[1] = molecular target: T2, human IL-13 (recombinant E. coli-expressed) (human, UniProt P35225 35-146); assay: cell-based or functional assay
T2 sequence (P35225 other isoform, or with tags, fused parts or gaps limits assumed): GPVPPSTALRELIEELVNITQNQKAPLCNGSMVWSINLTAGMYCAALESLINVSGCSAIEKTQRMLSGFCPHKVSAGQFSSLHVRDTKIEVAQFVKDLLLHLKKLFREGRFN

[2] = molecular target: T2, human IL-13 (recombinant E. …); assay: cell-based or functional assay; remark: listed apart in the source
[3] = molecular target: T2, human IL-13 (recombinant E. …); assay: Biacore T100 SPR, mAb captured on anti-human IgG, IL13 analyte
Protocol: (§1) Table 1 details the overall affinities (equilibrium dissociation constant KD) for the selected constructs from the ProteOn screen and the T100 run
(§2) In light of this, mutations at this residue that were not present in the initial screen were tested using the ProteOn using the same method as described earlier and again using antibodies direct from tissue culture supernatants.

[4] = molecular target: T2, human IL-13 (recombinant E. …); assay: ProteOn XPR36 SPR, mAb captured on anti-human IgG, IL13 analyte
Protocol: (§3) The initial screen of CDRH3 mutants was carried out on the ProteOn XPR36 (Biorad). […] 3M MgCl₂ was used to regenerate the capture surface, removing the bound CDRH3 mutant antibodies ready for another cycle of capture and analyte injection. The data was fitted to the 1:1 model using the software inherent to the machine.

[5] = molecular target: T2, human IL-13 (recombinant E. …); assay: Biacore T100 SPR, mAb captured on anti-human IgG, IL13 analyte, 1:1 fit
Description: as §1

[6] = molecular target: T2, human IL-13 (recombinant E. …); assay: Biacore T100 SPR, purified mAb captured on anti-human IgG, IL13 analyte, 1:1 fit
Description: as §1

[7] = molecular target: T2, human IL-13 (recombinant E. …); assay: as above; remark: listed apart in the source
Description: as §1

[8] = molecular target: T2, human IL-13 (recombinant E. …); assay: ProteOn XPR36 SPR, purified mAb captured on anti-human IgG, IL13 analyte, 1:1 fit; range over several runs
Protocol: as §3

[9] = molecular target: T2, human IL-13 (recombinant E. …); assay: ProteOn XPR36 SPR, mAb (supernatant) captured on anti-human IgG, IL13 analyte
Protocol: as §3, §2

[10] = molecular target: T2, human IL-13 (recombinant E. …); assay: Biacore T100 SPR, mAb (supernatant) captured on anti-human IgG, IL13 analyte, 1:1 fit
Description: as §1

[11] = molecular target: T1, human IL-4 (recombinant E. …); assay: direct binding ELISA, plate coated with 5 µg/ml human IL-4, anti-human kappa light chain-HRP detection, absorbance at 490 nm
Protocol: An ELISA was performed as described in example 4, coating 96-well high binding plates with 50 μl/well of recombinant E. coli-expressed human IL-4 at 5 μg/ml and incubated at +4° C. overnight.

[12] = molecular target: T1, human IL-4 (recombinant E. …); assay: Biacore T100 SPR, Protein A capture (CM5), human IL4 analyte, 1:1 fit
Protocol: Purified mAbs and mAbdAb constructs were tested in a BIAcore assay to determine whether the mutation of position 89 had any effect on the binding of the dAb to IL-4.
(§4) Protein A was immobilised on a CM5 chip by primary amine coupling; this surface was used as a capture surface for the antibody molecules to be tested. […] Regeneration of the anti-Protein A surface was achieved using 50 mM NaOH. The assay was run at 25° C. using HBS-EP as running buffer. The data was fitted to 1:1 model inherent to the Biacore T100 analysis software.

[13] = molecular target: T1, human IL-4 (recombinant E. …); assay: Biacore T100 SPR, Protein A capture (C1 chip), human IL4 analyte, 1:1 fit
Protocol: as §4, with “Cl” for “CM5”, “Regeneration” for “Regeneration of”, “Protein” for “anti-Protein”, “with 100” for “achieved using 50”, “Phosphoric acid.” for “NaOH.”

Binder	ND50 (nM), TF-1 cell proliferation bioassay [1] [nM]	Mean ND50 value (nM), TF-1 cell proliferation bioassay [2] [nM]	Kd [3] [nM]	Kd [4] [nM]	Kd [5] [nM]	koff [5] [s⁻¹]	kon [5] [M⁻¹ s⁻¹]	Kd [6] [nM]	Kd [7] [nM]	koff [7] [s⁻¹]	kon [7] [M⁻¹ s⁻¹]	Kd [8] [nM]	Kd [9] [nM]	Kd [10] [nM]	koff [10] [s⁻¹]	kon [10] [M⁻¹ s⁻¹]	binding result [11]	Kd [12] [nM]	Kd [13] [nM]
B1	9.77	5.01	0.346	0.39 to 0.46	0.36	0.000456	1.27e+06	0.366	0.326	0.000368	1.13e+06	0.45 to 0.6	–	–	–	–	–	–	–
B2	–	–	0.025	–	–	–	–	–	0.027	2.12e-05	776000	–	0.166	0.034	3.45e-05	1.02e+06	no binding (tested: 10 µg/ml)	–	–
B3	–	–	–	–	–	–	–	–	–	–	–	–	–	–	–	–	–	0.01	0.018
